Measurements published in patent US20090092971.

Target: active RhoA, P61586
Sequence (P61586 1-190): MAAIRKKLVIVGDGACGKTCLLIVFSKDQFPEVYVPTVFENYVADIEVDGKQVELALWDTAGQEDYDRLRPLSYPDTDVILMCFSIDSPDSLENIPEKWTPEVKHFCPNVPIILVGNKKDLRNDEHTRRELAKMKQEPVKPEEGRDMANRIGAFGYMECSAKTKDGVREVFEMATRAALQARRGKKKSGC

B1: GEF-H1 (Rho guanine nucleotide exchange factor H1) (protein)
chain: MKEAKDARYTNGHLFTTISVSGMTMCYACNKSITAKEALICPTCNVTIHNRCKDTLANCTKVKQKQQKAALLKNNTALQSVSLRSKTTIRERPSSAIYPSDSFRQSLLGSRRGRSSLSLAKSVSTTNIAGHFNDESPLGLRRILSQSTDSLNMRNRTLSVESLIDEEVIYSELMSDFEMDEKDFAADSWSLAVDSSFLQQHKKEVMKQQDVIYELIQTELHHVRTLKIMTRLFRTGMLEELHLEPGVVQGLFPCVDELSDIHTRFLSQLLERRRQALCPGSTRNFVIHRLGDLLISQFSGPSAEQMCKTYSEFCSRHSKALKLYKELYARDKRFQQFIRKVTRPAVLKRHGVQECILLVTQRITKYPLLISRILQHSHGIEEERQDLTTALGLVKELLSNVDEGIYQLEKGARLQEIYNRMDPRAQTPVPGKGPFGREELLRRKLIHDGCLLWKTATGRFKDVLVLLMTDVLVFLQEKDQKYIFPTLDKPSVVSLQNLIVRDIANQEKGMFLISAAPPEMYEVHTASRDDRSTWIRVIQQSVRTCPSREDFPLIETEDEAYLRRIKMELQQKDRALVELLREKVGLFAEMTHFQAEEDGGSGMALPTLPRGLFRSESLESPRGERLLQDAIREVEGLKDLLVGPGVELLLTPREPALPLEPDSGGNTSPGVTANGEARTFNGSIELCRADSDSSQRDRNGNQLRSPQEEALQRLVNLYGLLHGLQAAVAQQDTLMEARFPEGPERREKLCRANSRDGEAGRAGAAPVAPEKQATELALLQRQHALLQEELRRCRRLGEERATEAGSLEARLRESEQARALLEREAEEARRQLAALGQTEPLPAEAPWARRPVDPRRRSLPAGDALYLSFNPPQPSRGTDRLDLPVTTRSVHRNFEDRERQELGSPEERLQDSSDPDTGSEEEGSSRLSPPHSPRDFTRMQDIPEETESRDGEAVASES
- RhoA activity (active RhoA pulled down with GST-Rhotekin-RBD, western blot): the RhoA activity increased by at least 5 times
